Assay [1] deals with SARS-CoV-2 spike receptor binding domain (SARS-CoV-2, UniProt P0DTC2 319-541).
Another assay concerns the target T1, SARS-CoV-2 ORF8 protein (SARS-CoV-2, UniProt P0DTC8 16-121).
T1 construct: domain: Ig-like domains; also called open reading frame 8
As to the kind of experiment: mAb table, Specificity column (recombinant IgG1; ELISA).

The target of assay [2] is T2, SARS-CoV-2 open reading frame 8 protein (SARS-CoV-2, UniProt P0DTC8 16-121).
T2 construct: domain: Ig-like domain; also called ORF8
T2 sequence (P0DTC8 16-121, tags left off): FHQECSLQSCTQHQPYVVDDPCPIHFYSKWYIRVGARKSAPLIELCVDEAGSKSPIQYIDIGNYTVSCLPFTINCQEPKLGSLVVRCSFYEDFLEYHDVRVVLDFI

Assay [3] has as its target SARS-CoV-2 spike receptor binding domain (SARS-CoV-2, UniProt P0DTC2 319-541). The source holds these as a separate data set.
Assay [4] has as its target T3, SARS-CoV-2 open reading frame 8 (ORF8) protein (SARS-CoV-2, UniProt P0DTC8 16-121).
T3 construct: domain: Ig-like domains; also called ORFS [sic]

Assay [5] concerns the target T4, SARS-CoV-2 open reading frame 8 protein (SARS-CoV-2, UniProt P0DTC8 16-121).
T4 construct: domain: Ig-like domain; also called ORF8
The source holds these as a separate data set.
T4 sequence (P0DTC8 16-121, tags left off): as above

Read-outs that look alike come from different tables or passages of the source.

T1 sequence (P0DTC8 16-121, tags left off): as above
T3 sequence (P0DTC8 16-121, tags left off): as above

B1: S144-69 (antibody, V domains shown)
VH: EVQLVQSGAEVKKPGESLKISCKGSGYSFTSYWIGWVRQMPGKGLEWMGIIYPGDSDTRYSPSFQGQVTISADKSITTAYLQWSSLKASDTAMYYCARTQTTNWFDSWGQGTLVTVSS
VL: DIQMTQSPSTLSVSVGDRVTITCRASQSVSSWLAWYQQKPGKAPKLLIYDASSLESGVPSRFSGSGSGTEFTLTISSLQPDDFATYYCQQYNSFYTFGQGTKLEIK
B1: the binding result in assay [1] was “binds”.

B2: S144-509 (antibody, V domains shown)
VH: EVQLVQSGAEVKKPGESLKISCKGSAYTFTTYWIGWVRQMPGKGLEWMGIIYPGDSDTRYSPSFQGQVTISADKSISTAYLQWSSLKASDTAMYYCARLLLVAGPFDYWGQGTLVTVSS
VL: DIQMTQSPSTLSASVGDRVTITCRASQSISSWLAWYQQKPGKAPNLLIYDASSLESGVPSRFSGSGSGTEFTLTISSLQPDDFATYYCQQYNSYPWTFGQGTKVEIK
Take B2: in assay [1], the binding result is recorded as “binds”.

B3: S144-466 (antibody, V domains shown)
VH: EVQLVQSGAEVKKPGESLKISCKGSGYRFTRYWIGWVRQMPGKGLEWMGIIYLGDSETRYSPSFQGQVTISADNSISTAYLQWSSLKASDTAMYYCARSSNWNYGDYWGQGTLVTVSS
VL: DIQMTQSPSTLSASVGDRVTITCRASQSITSWLAWYQQKSGKAPKLLIYDASSLESGVPSRFSGSGSGTEFTLTISSLQPDDFATYYCQQYNSYPWTFGQGTKVEIK
In the case of B3, the binding result in assay [1] was “binds”.

B4: S144-741 (antibody, V domains shown)
VH: QVHLVQSGAEVKKPGASVKVSCKASGYTFTGYYMNWVRQAPGQGLEWMGRINPNSGGTNYAQKFQGRVTMTRDTSISTAYMELSRLRSDDAAVYYCARAERYSSSWYNLYYWGQGTLVTVSS
VL: not shown
notes: recombinant human IgG1
For B4, the binding result with SARS-CoV-2 ORF8 protein was “binds”.

B5: S144-741 (antibody, V domains shown)
VH: QVHLVQSGAEVKKPGASVKVSCKASGYTFTGYYMNWVRQAPGQGLEWMGRINPNSGGTNYAQKFQGRVTMTRDTSISTAYMELSRLRSDDAAVYYCARAERYSSSWYNLYYWGQGTLVTVSS
VL: not shown
For the molecule B5, the binding result in assay [2] is on record as “binds”.

B6: S564-152 (antibody, V domains shown)
VH: QVQLVESGGGVVQPGRSLRLSCAASGFTFSYYGMHWVRQAPGKGLEWVAVIWYDGSNKHYADSVKGRFTISRDNSKNTLYLQMNSLRAEDTAVYYCAKNAAPYCSGGSCYGTYFDYWGQGTLVTVSS
VL: DIQMTQSPSSLSASVGDRVTITCQASQDINNYLNWYQQKPGKAPKLLIYDASNLETGVPSRFSGSGSGTDFTFTISSLQPEDIATYYCQQYDNVPPHTFGQGTKLEIK
Take B6: the binding result in assay [3] is “binds”.

B7: S144-208 (antibody, V domains shown)
VH: not shown
VL: QSALTQPRSVSGSPGQSVTISCTGTSSDVGGYKYVSWYQQHPGKAPKLMIYDVSKRPSGVPDRFSGSKSGNTASLTISGLQAEDEGDYYCCSYAGTYSLVFGGGTKVTV
notes: recombinant human IgG1
In the case of B7, the binding result with SARS-CoV-2 ORF8 protein is listed as “binds”.

B8: S144-208 (antibody, V domains shown)
VH: not shown
VL: QSALTQPRSVSGSPGQSVTISCTGTSSDVGGYKYVSWYQQHPGKAPKLMIYDVSKRPSGVPDRFSGSKSGNTASLTISGLQAEDEGDYYCCSYAGTYSLVFGGGTKVTV
As to B8, the binding result in assay [2] was “binds”.

B9: S24-278 (antibody, V domains shown)
VH: QVQLVQSGAEVKKPGASVKVSCKASGYTFTGYYMHWVRQAPGQGLEWMGWINPNSGDTNYAQKFQGWVTMTRDTSLSTAYMELSRLKSDDTAVYYCARVGVGEYSGRHYYYYGMDVWGQGTTVTVSS
VL: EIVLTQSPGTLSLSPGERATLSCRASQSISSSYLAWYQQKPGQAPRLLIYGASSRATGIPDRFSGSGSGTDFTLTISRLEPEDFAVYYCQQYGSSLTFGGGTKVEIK
With B9, in assay [4], the binding result is “binds”.

B10: S144-1299 (antibody, V domains shown)
VH: QVQLQESGPGLVKPSETLSLTCTVSGGSISSYYWSWIRQPPGKGLEWIGYINYRGITNYNPSLKSRVTISVDMSKNQFSLKLSSVTAADTAVYSCARLAVASRGTVDYWGQGTLVTVSS
VL: not shown
Take B10: in assay [5], the binding result is recorded as “binds”.

B11: S144-1299 (antibody, V domains shown)
VH: QVQLQESGPGLVKPSETLSLTCTVSGGSISSYYWSWIRQPPGKGLEWIGYINYRGITNYNPSLKSRVTISVDMSKNQFSLKLSSVTAADTAVYSCARLAVASRGTVDYWGQGTLVTVSS
VL: not shown
notes: recombinant human IgG1
As to B11, the binding result with SARS-CoV-2 ORF8 protein is listed as “binds”.

B12: S144-588 (antibody, V domains shown)
VH: QLQLQESGPGLVKPSETLSLTCTVSGGSISSSSYYWGWIRQPPGKGLEWIGSIYYSGSTYYNPSLKSRFTISVDTSKNQFSLKLSSVTAADTAVYYCAAYQRKLGYCRGNSCFSCFDPWGQGTLVTVSS
VL: not shown
notes: recombinant human IgG1
As to B12, the binding result with SARS-CoV-2 ORF8 protein is given as “binds”.

B13: S144-588 (antibody, V domains shown)
VH: QLQLQESGPGLVKPSETLSLTCTVSGGSISSSSYYWGWIRQPPGKGLEWIGSIYYSGSTYYNPSLKSRFTISVDTSKNQFSLKLSSVTAADTAVYYCAAYQRKLGYCRGNSCFSCFDPWGQGTLVTVSS
VL: not shown
In the case of B13, the binding result in assay [2] is “binds”.

B14: S144-843 (antibody, V domains shown)
VH: QVQLVESGGGVVQPGGSVRLSCAASGFDFTNNGMYWVRQAPGKGLEWVAFIRYDGNKQDYADSVKGRFTISRDNSKNTLYLQMSSLRPEDTAVYYCAKGVYTENYGWGQGTLVTVSS
VL: EIVLTQSPGTLSLSPGERATLSCRASQTVTSRYLAWYQQKPGQAPRLLIYGASTRATGIPDRFSGSGSGTDFTLTISRLEPEDFAVYYCQQYGNSPPYTFGQGTKLEIK
notes: recombinant human IgG1
As for B14, in the assay with SARS-CoV-2 ORF8 protein, the binding result was “binds”.

B15: S144-843 (antibody, V domains shown)
VH: QVQLVESGGGVVQPGGSVRLSCAASGFDFTNNGMYWVRQAPGKGLEWVAFIRYDGNKQDYADSVKGRFTISRDNSKNTLYLQMSSLRPEDTAVYYCAKGVYTENYGWGQGTLVTVSS
VL: EIVLTQSPGTLSLSPGERATLSCRASQTVTSRYLAWYQQKPGQAPRLLIYGASTRATGIPDRFSGSGSGTDFTLTISRLEPEDFAVYYCQQYGNSPPYTFGQGTKLEIK
With B15, the binding result in assay [2] was “binds”.

B16: S144-1406 (antibody, V domains shown)
VH: QVQLVQSGAEVKKPGASVKVSCKASGYTFTTYAMHWVRQAPGQRLEWMGWINAGNGNTKYSQNFQGRVTITRDTSASTAYMELSSLRSEDTAVYYCASLVGGDSSSWYDYMDVWGKGTTVTVSS
VL: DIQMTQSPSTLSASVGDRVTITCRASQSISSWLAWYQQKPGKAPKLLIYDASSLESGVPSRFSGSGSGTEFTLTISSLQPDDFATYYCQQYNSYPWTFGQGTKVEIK
Consider B16, for which the binding result in assay [3] was “binds”.

B17: S564-138 (antibody, V domains shown)
VH: QVLLVQSGAEVKKPGASVKVSCKASGYTFTGYYLHWVRQAPGQGLEWMGWINPISGGTNYAQNFQDRVTMTRDTSIITAYMELSRLRSDDTAVYYCARLAYYYDSSAYRGAFDIWGQGTMVTVSS
VL: QSALTQPASVSGSPGQSITISCTGTSSDVGGYNYVSWYQQHPGKAPKLMIYEVSNRPSGVSDRFSGSKSGNTASLTISGLQAEDEADYYCSSYTSSSTYVFGTGTKVTVL
Consider B17, for which, in assay [3], the binding result is given as “binds”.

B18: S564-287 (antibody, V domains shown)
VH: not shown
VL: QSALTQPASVSGSPGQSITISCTGTSSDVGGYNYVSWYQQHPGKAPKLMIYDVSNRPSGVSNRFSGSKSGNTASLTISGLQAEDEADYYCSSYASSSTWVFGGGTKLTVL
notes: recombinant human IgG1
B18: in the assay with SARS-CoV-2 ORF8 protein, the binding result was “binds”.

B19: S564-287 (antibody, V domains shown)
VH: not shown
VL: QSALTQPASVSGSPGQSITISCTGTSSDVGGYNYVSWYQQHPGKAPKLMIYDVSNRPSGVSNRFSGSKSGNTASLTISGLQAEDEADYYCSSYASSSTWVFGGGTKLTVL
On to B19, for which the binding result in assay [5] is “binds”.

B20: S144-175 (antibody, V domains shown)
VH: QVQLVQSGAEVKKPGASVKVSCKASGYTFTGYYMHWVRQAPGQGLEWMGRINPNSGGTNFAQRFQGRVSMTRDTSISTAYMELSSLRSDDTAVYYCARGAKFEHLPFDIWGQGTMVTVSS
VL: QSMLTQPPSASGTPGQRVTISCSGSSSNIGSNYVYWYQQLPGTAPKLLIYRNNQRPSGVPDRFSGSKSGTSASLAISGLRSEDEADYYCAAWDDRRWVFGGGTKLTVL
notes: recombinant human IgG1
Regarding B20, the binding result with SARS-CoV-2 ORF8 protein is on record as “binds”.

B21: S144-175 (antibody, V domains shown)
VH: QVQLVQSGAEVKKPGASVKVSCKASGYTFTGYYMHWVRQAPGQGLEWMGRINPNSGGTNFAQRFQGRVSMTRDTSISTAYMELSSLRSDDTAVYYCARGAKFEHLPFDIWGQGTMVTVSS
VL: QSMLTQPPSASGTPGQRVTISCSGSSSNIGSNYVYWYQQLPGTAPKLLIYRNNQRPSGVPDRFSGSKSGTSASLAISGLRSEDEADYYCAAWDDRRWVFGGGTKLTVL
As for B21, the binding result in assay [2] is given as “binds”.

B22: S144-1079 (antibody, V domains shown)
VH: QVQLVQSGAEVKKPGSSVKVSCKASGDTFGSYSITWVRQAPGQGLEWMGRIIPVLGIANYAQKFQGRVTITADKSTSTAYMELSSLRSEDTAVYYCAGGGCSGGNCYSWYNWFDPWGQGSLVTVSS
VL: EIVLTQSPGTLSLSPGERATLSCRASQSVSSNYLAWYQQKPGQAPRLLIYGASSRATGIPERFSGSGSGTDFTLTISRLEPEDFAVYYCQQYGRSPYTFGQGTKLEIK
Turning to B22, the binding result in assay [1] is given as “binds”.

B23: S564-14 (antibody, V domains shown)
VH: EVQLVESGGGLVQPGGSLRLSCAASGLTFSSYWMSWARQAPGKGLEWVANIKKDGSEKYYVDSVKGRFTISRDNAKNSLYLQMNSLRVEDTAVYYCASEPPHYGGNSGAEYFQHWGQGTLVTVSS
VL: SYVLTQPPSVSVAPGKTARITCGGNNIGSKSVHWYQQRPGQAPVLVIYYDSDRPSGIPERFSGSNSGNTATLTISRVEAGDEADYYCQVWDSSSDHHYVFGTGTKVTVL
With B23, the binding result in assay [3] is given as “binds”.

B24: S144-67 (antibody, V domains shown)
VH: EVQLVQSGAEVKKPGESLKISCKGSGYSFTTYWIAWVRQMPGKGLEWVGIIYPDDSDTRYSPSFQGQVTISADKSIGTAYLQWSSLKASDTAMYYCARGQYYDFWSGAGGVDVWGQGTTVTVSS
VL: QSVLTQPPSVSGAPGQRVTISCTGSRSNIGAGYDVQWYQQVPGTAPKLLISGNSNRPSGVPDRFSGSKSGTSASLAITGLQAEDEADYYCQSYDSSLSGLRVFGGGTKLTVL
Turning to B24, the binding result in assay [1] is recorded as “binds”.

For the origin of these results see patent US20240002477A1 (UNIVERSITY OF CHICAGO, published 2024).
